Source: US10376545B2, “Methods for producing hormone secreting cells in a subject” (ViaCyte, Inc., priority 2013, dated 2019)
Entries after “also recorded” stand apart in the source; their conditions may differ.

Columns and labels:
Assay type in all cases: cell-based, human
[1] = test system: NGN3, NKX2.2, NKX6.1, PDX1 expression; experiment: Quantitative PCR of relative gene expression in PEC cultures (NGN3, NKX2.2, NKX6.1, PDX1)
Experimental: The progression of pluripotent cells to various multipotent and/or differentiated cells can be monitored by determining the relative expression of genes, or gene markers, characteristic of a specific cell, as compared to the expression of a second or control gene, e.g., housekeeping genes. In some processes, the expression of certain markers is determined by detecting the presence or absence of the marker. Alternatively, the expression of certain markers can be determined by measuring the level at which the marker is present in the cells of the cell culture or cell population. In such processes, the measurement of marker expression can be qualitative or quantitative. One method of quantitating the expression of markers that are produced by marker genes is through the use of quantitative PCR (Q-PCR). Methods of performing Q-PCR are well known in the art. Other methods which are known in the art can also be used to quantitate marker gene expression. For example, the expression of a marker gene product can be detected by using antibodies specific for the marker gene product of interest.
(§1) Various growth factors were explored for their ability to suppress genes such as NGN3 during stages 3 and 4. One candidate growth factor was Activin which has diverse functions in stem cell expansion and differentiation. For example, at low levels (e.g. 10 ng/mL), Activin helps maintain pluripotent stem cell pluripotency and cell proliferation. At higher levels (e.g. 100 ng/mL) Activin acts as a differentiation growth factor responsible for definitive endoderm production at stage 1 (see e.g., Table 8). To test its effect on repressing cells committed to the endocrine lineage (CHGA+) during PEC formation, Applicant first tested Activin at a mid-level concentration of about 50 ng/mL with standard adherent differentiation.
Quantitative PCR analysis was performed to determine the relative levels of gene expression at days 8, 10 and 12 of differentiation with the above combinations of Activin and Heregulin (FIG. 13). […]

[2] = test system: hES-derived cell aggregates; experiment: Cell aggregate size / cell mass in suspension culture (imaging)
Experimental: Preliminary studies were performed using Heregulin and FGF. In certain of these studies, Rho-kinase inhibitor, Y-27632, was included. […] An increase in cell aggregate size is advantageous in that it results in higher cell mass for later implantation and testing for function in animals.
as §1
(§2) So, Activin levels less than about 25 ng/mL are acceptable for maintaining cell mass and yield. Applicant then performed flow cytometry analysis on these cell cultures to determine whether Activin at low levels during stages 3 and 4 had any effect on cell aggregate composition; see Table 14. […] Advantageously, the PDX1 only and Triple Negative sub-populations are reduced as compared to the control, particularly when Activin is used in stages 3 and 4.
Pluripotent stem cells were differentiated using the standard protocol according to Table 8, except during stage 3, Activin was included at 10 ng/mL or 20 ng/mL in combination with Heregulin at 2 ng/mL or 10 ng/mL; and during stage 4, Activin was reduced to 5 ng/mL with Heregulin at 1 ng/mL for two days then at 10 ng/mL thereafter. […] Increasing Activin to 20 ng/mL with Heregulin remaining the same at 2 ng/mL exacerbated the cell loss (compare FIGS. 12B and 12C, top panel). […]

PEC derived from hESC = experiment: Flow cytometry analysis of PEC derived from hESC (CHGA, NKX6.1, PDX1 sub-populations)
Experimental: as §2
To determine the cell composition of the PEC population with the combination of Activin, Heregulin and Wnt during stage 3, flow cytometry was performed after stage 4 and the PEC cellular composition is shown in Table 14. […] Data from flow cytometry supports and is consistent with data from QPCR that the combination of the three factors (AHW) in general delayed or suppressed differentiation of cells committed to the endocrine lineage (CHGA+) in PEC without affecting the production of the non-endocrine (CHGA−) sub-population. The delayed expression of these genes in vitro is consistent with their on-set (or delay) in in vivo mammalian pancreatic development, whereby NGN3 expression in endocrine differentiation occurs after the on-set of PDX1 and NKX6.1 expression in the non-endocrine (CHGA−) sub-population. Additionally, there was no compromise in the PEC mass and yield. […]
Undifferentiated human ESC were expanded and differentiated substantially as described above in Table 17 Protocol #1 for stages 1-4 and in Schulz et al. (2012) supra, except that during the three (3) days of stage 3, 4 different conditions were compared: (i) 0 noggin (“no noggin”) for all 3 days; (ii) 1 day of Noggin at 50 ng/mL and 2 days with no additional Noggin; (iii) 2 days of Noggin at 50 ng/mL and 1 day with no additional noggin; and (iv) 3 days of Noggin at 50 ng/mL. After stage 3, each of these conditions (i) through (iv) then received the standard stage 4 differentiation media cocktail according to Table 8 and Table 17, but without additional Noggin. […] Moreover, with each additional day of noggin treatment, fewer non-endocrine multipotent pancreatic progenitor sub-populations were produced (compare 90.6% with no noggin to 64.6% with 3 days of noggin treatment).

[3] = test system: INS, GCG, SST, GHRL, PDX1, NKX6.1, NGN3, ID1 expression; experiment: Nanostring mRNA analysis of endocrine cell cultures
[4] = A5 Stg3&4: 5 ng/mL Activin at stages 3 and 4
[5] = A5 Stg3: 5 ng/mL Activin at stage 3
[6] = A10 Stg3: 10 ng/mL Activin at stage 3
[7] = N50-1day: Noggin 50 ng/mL for 1 day of stage 3, after stage 4
[8] = N50-2day: Noggin 50 ng/mL for 2 days of stage 3, after stage 4
[9] = N50-3d: Noggin 50 ng/mL for 3 days of stage 3, after stage 4

B1: Activin: TGFβ superfamily growth factor (protein, UniProt P08476 311-426, looked up)
Inhibin beta A chain: GLECDGKVNICCKKQFFVSFKDIGWNDWIIAPSGYHANYCEGECPSHIAGTSGSSLSFHSTVINHYRMRGHSPFANLKSCCVPTKLRPMSMLYYDDGQNIIKKDIQNMIVEECGCS
modifications: Inhibin beta A chain
notes: TGFβ superfamily growth factor
NGN3 and NKX2.2 expression ([1]; 10 and 20 ng/mL at stage 3 with Heregulin, days 8, 10 and 12): capable of repressing NGN3 and NKX2.2 | NGN3, PDX1 and NKX6.1 gene expression in PEC ([1]; about 50 ng/mL, standard adherent differentiation): capable of suppressing NGN3 expression without suppressing PDX1 and NKX6.1 gene expression | cell mass and yield of aggregates ([2]; 5 ng/mL and 10 ng/mL at stages 3 and 4): capable of maintaining cell mass and yield | cell mass of aggregates ([2]; 50 ng/mL during stage 3, cell aggregate suspension culture): the overall cell mass drastically decreased | Activin levels acceptable for maintaining cell mass and yield ([2]; stages 3 and 4, suspension culture): less than 25 ng/mL | CHGA+ (Endocrine) (PEC derived from hESC; [4]): 54.9% | CHGA−/NKX6.1+/PDX1+ (Non-endocrine) (PEC derived from hESC; [4]): 38% | CHGA−/NKX6.1−/PDX1+ (PDX ONLY) (PEC derived from hESC; [4]): 4.1% | CHGA−/NKX6.1−/PDX1− (Residual or Triple Negative) (PEC derived from hESC; [4]): 2% | CHGA+ (Endocrine) (PEC derived from hESC; [5]): 54.7% | CHGA−/NKX6.1+/PDX1+ (Non-endocrine) (PEC derived from hESC; [5]): 31.7% | CHGA−/NKX6.1−/PDX1+ (PDX ONLY) (PEC derived from hESC; [5]): 6.7% | CHGA−/NKX6.1−/PDX1− (Residual or Triple Negative) (PEC derived from hESC; [5]): 5.4% | CHGA+ (Endocrine) (PEC derived from hESC; [6]): 56.2% | CHGA−/NKX6.1+/PDX1+ (Non-endocrine) (PEC derived from hESC; [6]): 33.7% | CHGA−/NKX6.1−/PDX1+ (PDX ONLY) (PEC derived from hESC; [6]): 4.6% | CHGA−/NKX6.1−/PDX1− (Residual or Triple Negative) (PEC derived from hESC; [6]): 3.9%

B2: BMP: BMP4, member of the bone morphogenetic protein family (protein, UniProt P12644 293-408, looked up)
Bone morphogenetic protein 4: SPKHHSQRARKKNKNCRRHSLYVDFSDVGWNDWIVAPPGYQAFYCHGDCPFPLADHLNSTNHAIVQTLVNSVNSSIPKACCVPTELSAISMLYLDEYDKVVLKNYQEMVVEGCGCR
Insulin and PDX1 expression ([3]; 10 ng/mL at stages 6 and 7 or stage 7 alone): simultaneously increase Insulin and PDX1 expression | pancreatic-lineage gene expression ([3]; agent at days 30-35 during stage 7, analyzed at d35): increases expression of INS, PDX1 and IDI; also recorded: decreased GHRL expression | ID1 gene expression ([3]; stages 6 and 7): up-regulate inhibitor-of-differentiation (ID) gene expression

B3: noggin: protein that inactivates TGFβ superfamily signaling proteins such as BMP4 (protein, UniProt Q13253 28-232, looked up)
Noggin: QHYLHIRPAPSDNLPLVDLIEHPDPIFDPKEKDLNETLLRSLLGGHYDPGFMATSPPEDRPGGGGGAAGGAEDLAELDQLLRQRPSGAMPSEIKGLEFSEGLAQGKKQRLSKKLRRKLQMWLWSQTFCPVLYAWNDLGSRFWPRYVKVGSCFSKRSCSVPEGMVCKPSKSVHLTVLRWRCQRRGGQRCGWIPIQYPIISECKCSC
endocrine lineage marker expression (NKX2.2, INS) ([1]; each additional day of noggin treatment, after stage 4 (day 12)): increased levels of endocrine lineage marker expression | non-endocrine multipotent pancreatic progenitor sub-population (PEC derived from hESC; 3 days of Noggin at 50 ng/mL at stage 3, after stage 4): 64.6% | CHGA+ (Endocrine) (PEC derived from hESC; [7]): 11.9% | CHGA−/NKX6.1+ (Non-endocrine) (PEC derived from hESC; [7]): 82% | CHGA+ (Endocrine) (PEC derived from hESC; [8]): 25.1% | CHGA−/NKX6.1+ (Non-endocrine) (PEC derived from hESC; [8]): 71.9% | CHGA+ (Endocrine) (PEC derived from hESC; [9]): 32.5% | CHGA−/NKX6.1+ (Non-endocrine) (PEC derived from hESC; [9]): 64.6% | production of cells committed to the endocrine lineage (CHGA+) (PEC derived from hESC; each additional day of noggin treatment at stage 3): increased levels of production of cells committed to the endocrine lineage (CHGA+)
